According to patent US20130157934A1 (INDIANA UNIVERSITY RESEARCH AND TECHNOLOGY, published 2013):
Read-outs that look alike come from different tables or passages of the source. Starred links: 1 amine or outer side, 2 acyl side, 3 side chain; linkers in the order of their positions; H or OH if unused. Positions of bridges follow the written chain, without caps; N, C: chain ends. Non-standard residues stand in square brackets, D forms with d. Groups on a side chain read outwards from the residue. No end group written: not given here. estradiol (3-ether, amide-linked) = estradiol attached through its 3-position ether, via an amide; PhLac = O=C(O)[C@@H](O)Cc1ccccc1; Suc = O=C(CCC(=O)[*:2])[*:1]; Aib = CC(C)(N)C(=O)O

Assays:
Assay in all cases: cell-based or functional assay
GLP-1 receptor [1] = target: T1, GLP-1 receptor (UniProt P43220 24-463, limits assumed)
glucagon receptor [2] = target: glucagon receptor (UniProt P47871)
GLP-1 receptor [3] = target: GLP-1 receptor (UniProt P43220)
glucagon receptor [4] = target: glucagon receptor (UniProt P47871); remark: listed apart in the source
GLP-1 receptor [5] = target: T1, GLP-1 receptor; remark: listed apart in the source
glucagon receptor [6] = target: T2, glucagon receptor (UniProt P47871 26-477, limits assumed)
GLP-1 receptor [7] = target: T1, GLP-1 receptor; remark: listed apart in the source
glucagon receptor [8] = target: T2, glucagon receptor; remark: listed apart in the source
glucagon receptor [9] = target: T2, glucagon receptor; remark: listed apart in the source
GLP-1 receptor [10] = target: T1, GLP-1 receptor; remark: listed apart in the source
Target sequence in this assay (P43220 24-463 limits assumed): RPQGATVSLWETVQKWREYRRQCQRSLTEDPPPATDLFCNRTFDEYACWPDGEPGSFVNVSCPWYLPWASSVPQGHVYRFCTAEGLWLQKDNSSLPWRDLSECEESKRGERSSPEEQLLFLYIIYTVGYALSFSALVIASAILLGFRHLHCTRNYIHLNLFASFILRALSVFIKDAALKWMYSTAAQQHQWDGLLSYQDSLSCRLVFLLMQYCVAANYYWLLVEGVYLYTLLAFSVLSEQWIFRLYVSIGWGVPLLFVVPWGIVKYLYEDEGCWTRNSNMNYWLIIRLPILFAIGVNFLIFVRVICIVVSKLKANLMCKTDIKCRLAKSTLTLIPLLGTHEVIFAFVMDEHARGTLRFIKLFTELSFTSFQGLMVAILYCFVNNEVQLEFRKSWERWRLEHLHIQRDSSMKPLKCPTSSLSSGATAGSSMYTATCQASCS

GLP-1 receptor [11] = target: T1, GLP-1 receptor; remark: listed apart in the source
Target sequence in this assay (P43220 24-463 limits assumed): as above

glucagon receptor [12] = target: T2, glucagon receptor; remark: listed apart in the source
GLP-1 receptor [13] = target: T1, GLP-1 receptor; remark: listed apart in the source
Target sequence in this assay (P43220 24-463 limits assumed): as above

glucagon receptor [14] = target: T2, glucagon receptor; remark: listed apart in the source

T2 sequence (P47871 26-477 limits assumed): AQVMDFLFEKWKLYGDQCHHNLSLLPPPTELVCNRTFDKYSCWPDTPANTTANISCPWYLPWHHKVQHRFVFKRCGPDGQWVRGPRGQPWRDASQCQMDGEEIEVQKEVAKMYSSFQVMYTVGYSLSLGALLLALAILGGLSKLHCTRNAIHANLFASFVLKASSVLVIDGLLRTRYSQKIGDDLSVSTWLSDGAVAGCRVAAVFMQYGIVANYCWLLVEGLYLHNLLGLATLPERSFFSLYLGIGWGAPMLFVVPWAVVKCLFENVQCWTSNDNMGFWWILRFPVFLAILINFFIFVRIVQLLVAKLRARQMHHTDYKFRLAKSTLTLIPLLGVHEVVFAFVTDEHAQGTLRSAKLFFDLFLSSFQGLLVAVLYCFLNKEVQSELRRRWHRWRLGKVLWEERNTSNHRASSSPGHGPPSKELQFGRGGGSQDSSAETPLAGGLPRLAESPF
Chain of glucagon receptor (UniProt P47871) (P47871 26-477 limits assumed): as above
Chain of GLP-1 receptor (UniProt P43220) (P43220 24-463 limits assumed): as the sequence (P43220 24-463 limits assumed) above

With HSQGTFTSDYARYLDARRAREFIKWLVRGRG [ANK2 (Bayer peptide)] the “GLP-1 EC50” value (GLP-1 receptor [1]) was 0.28 nM.

B1: [PLA6, E9, K12E16(Lactam)] glucagon(6-39) Cex peptide (peptide)
peptide: XTSEYSKYLDERRAQDFVQWLMNTGPSSGAPPPS
modifications: not fully specified; X1 = PLA (phenyl lactic acid in place of Phe 6 of glucagon); lactam bridge K12-E16 (glucagon numbering; residues 7 and 11 of this chain)
B1 was tested, and the Glu IC50 (glucagon receptor [2]) was 72 nM, the GLP-1 EC50 (GLP-1 receptor [3]) was 6 nM and the Glucagon IC50 (glucagon receptor [4]) was 72 nM.

In the case of FTSDYSKYLDERRAQDFVQWLMNTGPSSGAPPPS-NH2 (lactam 7-11; not fully specified) [D9, K12E16(Lactam) glucagon(6-39) Cex peptide], the “GLP-1 EC50” value (GLP-1 receptor [5]) is reported as 119 nM, the “Glu IC50” value (glucagon receptor [6]) is reported as 828 nM and the “GLP-1 EC50” value (GLP-1 receptor [7]) is reported as 18 nM. For the same binder, the “Glucagon IC50” value (glucagon receptor [8]) was 828 nM.

With FTSEYSKYLDERRAQDFVQWLMNTGPSSGAPPPS-NH2 [E9, K12, E16 glucagon(6-39) Cex peptide] the “Glu IC50” value (glucagon receptor [6]) was 762 nM and the “Glucagon IC50” value (glucagon receptor [8]) was 762 nM.

B2: E9, K12E16(lactam) glucagon(6-39) Cex peptide (peptide)
peptide: FTSEYSKYLDERRAQDFVQWLMNTGPSSGAPPPS-NH2
modifications: lactam 7-11; N-terminus assumed
SMILES: CSCC[C@H](NC(=O)[C@H](CC(C)C)NC(=O)[C@H](Cc1c[nH]c2ccccc12)NC(=O)[C@H](CCC(N)=O)NC(=O)[C@@H](NC(=O)[C@H](Cc1ccccc1)NC(=O)[C@H](CC(=O)O)NC(=O)[C@H](CCC(N)=O)NC(=O)[C@H](C)NC(=O)[C@H](CCCNC(=N)N)NC(=O)[C@H](CCCNC(=N)N)NC(=O)[C@@H]1CCC(=O)NCCCC[C@H](NC(=O)[C@H](CO)NC(=O)[C@H](Cc2ccc(O)cc2)NC(=O)[C@H](CCC(=O)O)NC(=O)[C@H](CO)NC(=O)[C@@H](NC(=O)[C@@H](N)Cc2ccccc2)[C@@H](C)O)C(=O)N[C@@H](Cc2ccc(O)cc2)C(=O)N[C@@H](CC(C)C)C(=O)N[C@@H](CC(=O)O)C(=O)N1)C(C)C)C(=O)N[C@@H](CC(N)=O)C(=O)N[C@H](C(=O)NCC(=O)N1CCC[C@H]1C(=O)N[C@@H](CO)C(=O)N[C@@H](CO)C(=O)NCC(=O)N[C@@H](C)C(=O)N1CCC[C@H]1C(=O)N1CCC[C@H]1C(=O)N1CCC[C@H]1C(=O)N[C@@H](CO)C(N)=O)[C@@H](C)O
With B2 the “GLP-1 EC50” value (GLP-1 receptor [5]) was 63 nM, the “Glu IC50” value (glucagon receptor [6]) was 2010 nM and the “GLP-1 EC50” value (GLP-1 receptor [7]) was 63 nM. For the same binder, the “Glucagon IC50” value (glucagon receptor [8]) was 2010 nM.

With [PhLac]TSDYSKYLDERRAKDFVQWLMDT-NH2 (lactam 11-15) [[PLA6, D9, E16K20(lactam), D28]G(6-29)] the “Glucagon IC50” value (glucagon receptor [9]) was 10 to 30 nM, the “GLP-1 EC50” value (GLP-1 receptor [7]) was 4 nM and the “Glucagon IC50” value (glucagon receptor [8]) was 6 nM.

[dA][Aib][dE]G[dT][dF][dT][dS][dD][dV][dS][dS][dY][dL][dE]G[dQ][dA][dA][dK][dE][dA][dI][dA][dW][dL][dV][dK]GG[dP][dS][dS]G[dA][dP][dP][dP][dS]K(estradiol (3-ether, amide-linked))-NH2 [Inactive GLP-1 (d-amino acid containing)/Estrogen(3-ether)] was tested, and the “GLP-1 EC50 (cAMP induction, CRE-luciferase in HEK293 cells)” value (GLP-1 receptor [10]) was 418 nM.

B3: [A2E3, E16K20(Lactam), D28]G(1~29) (peptide)
peptide: HAEGTFTSEYSKYLDERRAKDFVQWLMDT-NH2
modifications: lactam 16-20; N-terminus assumed
SMILES: CSCC[C@H](NC(=O)[C@H](CC(C)C)NC(=O)[C@H](Cc1c[nH]c2ccccc12)NC(=O)[C@H](CCC(N)=O)NC(=O)[C@@H](NC(=O)[C@H](Cc1ccccc1)NC(=O)[C@H](CC(=O)O)NC(=O)[C@@H]1CCCCNC(=O)CC[C@H](NC(=O)[C@H](CC(=O)O)NC(=O)[C@H](CC(C)C)NC(=O)[C@H](Cc2ccc(O)cc2)NC(=O)[C@H](CCCCN)NC(=O)[C@H](CO)NC(=O)[C@H](Cc2ccc(O)cc2)NC(=O)[C@H](CCC(=O)O)NC(=O)[C@H](CO)NC(=O)[C@@H](NC(=O)[C@H](Cc2ccccc2)NC(=O)[C@@H](NC(=O)CNC(=O)[C@H](CCC(=O)O)NC(=O)[C@H](C)NC(=O)[C@@H](N)Cc2c[nH]cn2)[C@@H](C)O)[C@@H](C)O)C(=O)N[C@@H](CCCNC(=N)N)C(=O)N[C@@H](CCCNC(=N)N)C(=O)N[C@@H](C)C(=O)N1)C(C)C)C(=O)N[C@@H](CC(=O)O)C(=O)N[C@H](C(N)=O)[C@@H](C)O
With B3 the “GLP-1 EC50” value (GLP-1 receptor [1]) was 0.2 nM and the “Glucagon IC50” value (glucagon receptor [9]) was 130 nM.

B4: E9, E16K20(lactam) glucagon(6-39) Cex peptide (peptide)
peptide: FTSEYSKYLDERRAKDFVQWLMNTGPSSGAPPPS-NH2
modifications: lactam 11-15; N-terminus assumed
SMILES: CSCC[C@H](NC(=O)[C@H](CC(C)C)NC(=O)[C@H](Cc1c[nH]c2ccccc12)NC(=O)[C@H](CCC(N)=O)NC(=O)[C@@H](NC(=O)[C@H](Cc1ccccc1)NC(=O)[C@H](CC(=O)O)NC(=O)[C@@H]1CCCCNC(=O)CC[C@H](NC(=O)[C@H](CC(=O)O)NC(=O)[C@H](CC(C)C)NC(=O)[C@H](Cc2ccc(O)cc2)NC(=O)[C@H](CCCCN)NC(=O)[C@H](CO)NC(=O)[C@H](Cc2ccc(O)cc2)NC(=O)[C@H](CCC(=O)O)NC(=O)[C@H](CO)NC(=O)[C@@H](NC(=O)[C@@H](N)Cc2ccccc2)[C@@H](C)O)C(=O)N[C@@H](CCCNC(=N)N)C(=O)N[C@@H](CCCNC(=N)N)C(=O)N[C@@H](C)C(=O)N1)C(C)C)C(=O)N[C@@H](CC(N)=O)C(=O)N[C@H](C(=O)NCC(=O)N1CCC[C@H]1C(=O)N[C@@H](CO)C(=O)N[C@@H](CO)C(=O)NCC(=O)N[C@@H](C)C(=O)N1CCC[C@H]1C(=O)N1CCC[C@H]1C(=O)N1CCC[C@H]1C(=O)N[C@@H](CO)C(N)=O)[C@@H](C)O
For B4, the “GLP-1 EC50” value (GLP-1 receptor [5]) was 36 nM, the “Glu IC50” value (glucagon receptor [6]) was 42 nM and the “GLP-1 EC50” value (GLP-1 receptor [7]) was 36 nM. The “Glucagon IC50” value (glucagon receptor [8]) was 42 nM.

For [dA][Aib][dE]G[dT][dF][dT][dS][dD][dV][dS][dS][dY][dL][dE]G[dQ][dA][dA][dK][dE][dA][dI][dA][dW][dL][dV][dK]GG[dP][dS][dS]G[dA][dP][dP][dP][dS]K([Suc-estradiol])-NH2 [Inactive GLP-1 (d-amino acid containing)/Estrogen(3-ester)], the “GLP-1 EC50 (cAMP induction, CRE-luciferase in HEK293 cells)” value (GLP-1 receptor [10]) was 562 nM.

B5: [E9, E16K20(lactam), D28]G(4~29) (peptide)
peptide: GTFTSEYSKYLDERRAKDFVQWLMDT-NH2
modifications: lactam 13-17; N-terminus assumed
SMILES: CSCC[C@H](NC(=O)[C@H](CC(C)C)NC(=O)[C@H](Cc1c[nH]c2ccccc12)NC(=O)[C@H](CCC(N)=O)NC(=O)[C@@H](NC(=O)[C@H](Cc1ccccc1)NC(=O)[C@H](CC(=O)O)NC(=O)[C@@H]1CCCCNC(=O)CC[C@H](NC(=O)[C@H](CC(=O)O)NC(=O)[C@H](CC(C)C)NC(=O)[C@H](Cc2ccc(O)cc2)NC(=O)[C@H](CCCCN)NC(=O)[C@H](CO)NC(=O)[C@H](Cc2ccc(O)cc2)NC(=O)[C@H](CCC(=O)O)NC(=O)[C@H](CO)NC(=O)[C@@H](NC(=O)[C@H](Cc2ccccc2)NC(=O)[C@@H](NC(=O)CN)[C@@H](C)O)[C@@H](C)O)C(=O)N[C@@H](CCCNC(=N)N)C(=O)N[C@@H](CCCNC(=N)N)C(=O)N[C@@H](C)C(=O)N1)C(C)C)C(=O)N[C@@H](CC(=O)O)C(=O)N[C@H](C(N)=O)[C@@H](C)O
With B5 the “GLP-1 EC50” value (GLP-1 receptor [1]) was 151 nM and the “Glucagon IC50” value (glucagon receptor [9]) was 10 to 30 nM.

B6: [PLA6, D9, E16, K20E24(Lactam), D28]G(6-29) (peptide)
peptide: [PhLac]TSDYSKYLDERRAKDFVEWLMDT-NH2
modifications: lactam 15-19; N-terminus assumed
SMILES: CSCC[C@H](NC(=O)[C@H](CC(C)C)NC(=O)[C@H](Cc1c[nH]c2ccccc12)NC(=O)[C@@H]1CCC(=O)NCCCC[C@H](NC(=O)[C@H](C)NC(=O)[C@H](CCCNC(=N)N)NC(=O)[C@H](CCCNC(=N)N)NC(=O)[C@H](CCC(=O)O)NC(=O)[C@H](CC(=O)O)NC(=O)[C@H](CC(C)C)NC(=O)[C@H](Cc2ccc(O)cc2)NC(=O)[C@H](CCCCN)NC(=O)[C@H](CO)NC(=O)[C@H](Cc2ccc(O)cc2)NC(=O)[C@H](CC(=O)O)NC(=O)[C@H](CO)NC(=O)[C@@H](NC(=O)[C@@H](O)Cc2ccccc2)[C@@H](C)O)C(=O)N[C@@H](CC(=O)O)C(=O)N[C@@H](Cc2ccccc2)C(=O)N[C@@H](C(C)C)C(=O)N1)C(=O)N[C@@H](CC(=O)O)C(=O)N[C@H](C(N)=O)[C@@H](C)O
Work on B6 yielded a GLP-1 EC50 (GLP-1 receptor [11]) of 239 nM and a Glucagon IC50 (glucagon receptor [12]) of 74 nM.

AEGTFTSEYSKYLDERRAKDFVQWLMDT-NH2 (lactam 15-19) [[A2E3, E16K20(Lactam), D28]G(2~29)] was tested, and the “Glucagon IC50” value (glucagon receptor [9]) was 63 nM.

Binder [PhLac]TSDYSKYLDERRAQDFVQWLMDT-NH2 (lactam 7-11; not fully specified) [[PLA6, D9, K12E16(Lactam), D28]G(6-29)] has a GLP-1 EC50 (GLP-1 receptor [11]) of 177 nM, a Glucagon IC50 (glucagon receptor [12]) of 63 nM and a GLP-1 EC50 (GLP-1 receptor [13]) of 21 nM. The Glucagon IC50 (glucagon receptor [14]) was 13 nM.

B7: [PLA6, D9, E16, E24K28(lactam)]G(6~29) (peptide)
peptide: [PhLac]TSDYSKYLDERRAQDFVEWLMKT-NH2
modifications: lactam 19-23; N-terminus assumed
SMILES: CSCC[C@@H]1NC(=O)[C@H](CC(C)C)NC(=O)[C@H](Cc2c[nH]c3ccccc23)NC(=O)[C@@H](NC(=O)[C@@H](NC(=O)[C@H](Cc2ccccc2)NC(=O)[C@H](CC(=O)O)NC(=O)[C@H](CCC(N)=O)NC(=O)[C@H](C)NC(=O)[C@H](CCCNC(=N)N)NC(=O)[C@H](CCCNC(=N)N)NC(=O)[C@H](CCC(=O)O)NC(=O)[C@H](CC(=O)O)NC(=O)[C@H](CC(C)C)NC(=O)[C@H](Cc2ccc(O)cc2)NC(=O)[C@H](CCCCN)NC(=O)[C@H](CO)NC(=O)[C@H](Cc2ccc(O)cc2)NC(=O)[C@H](CC(=O)O)NC(=O)[C@H](CO)NC(=O)[C@@H](NC(=O)[C@@H](O)Cc2ccccc2)[C@@H](C)O)C(C)C)CCC(=O)NCCCC[C@@H](C(=O)N[C@H](C(N)=O)[C@@H](C)O)NC1=O
For B7, the GLP-1 EC50 (GLP-1 receptor [11]) was 289 nM and the Glucagon IC50 (glucagon receptor [12]) was 22 nM.
